Test results: PMC2756588

T1: Bbc1, P47068
T1 sequence (P47068 1-78, looked up): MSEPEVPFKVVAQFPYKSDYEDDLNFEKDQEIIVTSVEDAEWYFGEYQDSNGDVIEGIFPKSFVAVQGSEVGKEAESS

T2: Cdc25, P04821
T2 sequence (P04821 50-136, looked up): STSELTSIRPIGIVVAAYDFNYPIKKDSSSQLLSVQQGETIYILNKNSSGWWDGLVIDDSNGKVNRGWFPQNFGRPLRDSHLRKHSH

T3: Fus1, P11710
T3 sequence (P11710 432-512, looked up): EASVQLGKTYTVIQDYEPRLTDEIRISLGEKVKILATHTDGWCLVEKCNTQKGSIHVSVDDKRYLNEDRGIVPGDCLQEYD

T4: Lsb1, P53281
T4 sequence (P53281 45-122, looked up): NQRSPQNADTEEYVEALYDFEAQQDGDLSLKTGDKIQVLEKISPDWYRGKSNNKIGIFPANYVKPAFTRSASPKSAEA

T5: Pex13, P80667
T5 sequence (P80667 295-386, looked up): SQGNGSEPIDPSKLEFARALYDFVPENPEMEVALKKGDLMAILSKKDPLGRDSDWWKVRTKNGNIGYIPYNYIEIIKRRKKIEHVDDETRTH

T6: Pin3, Q06449
T6 sequence (Q06449 53-122, looked up): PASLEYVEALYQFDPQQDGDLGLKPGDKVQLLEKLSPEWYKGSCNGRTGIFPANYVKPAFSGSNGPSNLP

T7: Bud14, P27637
T7 sequence (P27637 247-328, looked up): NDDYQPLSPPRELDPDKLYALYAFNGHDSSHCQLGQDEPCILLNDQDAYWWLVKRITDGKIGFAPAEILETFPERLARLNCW

T8: Cyk3, Q07533
T8 sequence (Q07533 1-83, looked up): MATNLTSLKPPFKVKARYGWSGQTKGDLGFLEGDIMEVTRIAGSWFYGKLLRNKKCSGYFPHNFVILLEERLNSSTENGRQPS

T9: Abp1, P15891
T9 sequence (P15891 535-592, looked up): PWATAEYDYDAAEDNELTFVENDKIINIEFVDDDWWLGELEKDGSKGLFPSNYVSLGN

T10: Bzz1-1, P38822
T10 sequence (P38822 478-572, looked up): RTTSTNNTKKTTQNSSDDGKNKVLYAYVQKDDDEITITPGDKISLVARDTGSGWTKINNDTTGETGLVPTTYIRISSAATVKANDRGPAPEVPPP

T11: Lsb4, P32793
T11 sequence (P32793 402-468, looked up): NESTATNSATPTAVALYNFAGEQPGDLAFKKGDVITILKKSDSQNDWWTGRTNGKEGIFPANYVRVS

T12: Boi2, P39969
T12 sequence (P39969 32-116, looked up): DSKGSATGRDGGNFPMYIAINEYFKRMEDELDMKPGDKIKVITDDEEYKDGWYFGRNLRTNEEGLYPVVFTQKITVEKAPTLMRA

T13: Nbp2, Q12163
T13 sequence (Q12163 103-180, looked up): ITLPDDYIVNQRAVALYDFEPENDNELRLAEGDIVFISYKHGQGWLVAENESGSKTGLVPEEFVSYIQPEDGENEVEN

T14: Sla1-3, P32790
T14 sequence (P32790 344-424, looked up): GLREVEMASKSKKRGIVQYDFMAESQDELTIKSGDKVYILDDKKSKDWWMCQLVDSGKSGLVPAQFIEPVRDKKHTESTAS

T15: Sla1-2, P32790
T15 sequence (P32790 60-140, looked up): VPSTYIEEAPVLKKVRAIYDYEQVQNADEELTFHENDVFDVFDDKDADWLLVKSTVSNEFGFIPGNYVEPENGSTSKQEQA

T16: Myo5, Q04439
T16 sequence (Q04439 1072-1160, looked up): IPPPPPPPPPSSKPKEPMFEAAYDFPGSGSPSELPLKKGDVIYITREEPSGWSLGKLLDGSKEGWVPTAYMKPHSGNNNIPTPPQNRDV

T17: Bzz1-2, P38822
T17 sequence (P38822 568-633, looked up): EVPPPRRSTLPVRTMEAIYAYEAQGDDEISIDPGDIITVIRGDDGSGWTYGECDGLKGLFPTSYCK

T18: Hse1, P38753
T18 sequence (P38753 208-285, looked up): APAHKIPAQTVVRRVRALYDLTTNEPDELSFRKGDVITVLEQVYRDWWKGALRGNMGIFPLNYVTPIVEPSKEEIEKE

T19: Lsb3, P43603
T19 sequence (P43603 385-451, looked up): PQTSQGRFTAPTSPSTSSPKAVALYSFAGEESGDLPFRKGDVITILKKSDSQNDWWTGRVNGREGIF

T20: Hof1, Q05080
T20 sequence (Q05080 590-669, looked up): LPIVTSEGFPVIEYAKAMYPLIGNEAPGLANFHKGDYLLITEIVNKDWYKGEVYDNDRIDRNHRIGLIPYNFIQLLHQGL

T21: Boi1, P38041
T21 sequence (P38041 1-86, looked up): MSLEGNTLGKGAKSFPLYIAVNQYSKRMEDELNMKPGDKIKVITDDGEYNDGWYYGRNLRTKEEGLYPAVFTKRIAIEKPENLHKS


What follows are binders tested against T1, Bbc1, P47068 (assay: SPOT array). Details: median of control spots 796.

Binder	SPOT intensity
HAPPLPPTAPPPPSL	0
MPAPPPPPPPPPGAF	0
VPKEPAPAPPPEPDM	0

The binders below were run against T2, Cdc25, P04821 (assay: SPOT array). Details: median of control spots 969.

Binder	SPOT intensity
HAPPLPPTAPPPPSL	0
MPAPPPPPPPPPGAF	0
VPKEPAPAPPPEPDM	0

Each binder was assayed against T3, Fus1, P11710 (assay: SPOT array). Details: median of control spots 1200.

Binder	SPOT intensity
HAPPLPPTAPPPPSL	0
MPAPPPPPPPPPGAF	0
VPKEPAPAPPPEPDM	1

The binders below were run against T4, Lsb1, P53281 (assay: SPOT array). Details: median of control spots 388.

Binder	SPOT intensity
HAPPLPPTAPPPPSL	0
MPAPPPPPPPPPGAF	0
VPKEPAPAPPPEPDM	0

What follows are binders tested against T5, Pex13, P80667 (assay: SPOT array). Details: median of control spots 1341.

Binder	SPOT intensity
HAPPLPPTAPPPPSL	0
MPAPPPPPPPPPGAF	0
VPKEPAPAPPPEPDM	4

What follows are binders tested against T6, Pin3, Q06449 (assay: SPOT array). Details: median of control spots 2171.

Binder	SPOT intensity
HAPPLPPTAPPPPSL	0
MPAPPPPPPPPPGAF	1
VPKEPAPAPPPEPDM	17

These binders were tested against Bem1-1, P29366 (assay: SPOT array). Details: median of control spots 4282.
Chain of Bem1-1, P29366 (P29366 55-141): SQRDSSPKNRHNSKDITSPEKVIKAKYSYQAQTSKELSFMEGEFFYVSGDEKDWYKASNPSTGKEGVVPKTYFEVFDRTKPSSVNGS

Binder	SPOT intensity
HAPPLPPTAPPPPSL	0
MPAPPPPPPPPPGAF	0
VPKEPAPAPPPEPDM	0

These binders were tested against T7, Bud14, P27637 (assay: SPOT array). Details: median of control spots 956.

Binder	SPOT intensity
HAPPLPPTAPPPPSL	0
MPAPPPPPPPPPGAF	0
VPKEPAPAPPPEPDM	0

These binders were tested against T8, Cyk3, Q07533 (assay: SPOT array). Details: median of control spots 1451.

Binder	SPOT intensity
HAPPLPPTAPPPPSL	0
MPAPPPPPPPPPGAF	0
VPKEPAPAPPPEPDM	1

These binders were tested against T9, Abp1, P15891 (assay: SPOT array). Details: median of control spots 935.

Binder	SPOT intensity
HAPPLPPTAPPPPSL	0
MPAPPPPPPPPPGAF	0
VPKEPAPAPPPEPDM	0

What follows are binders tested against T10, Bzz1-1, P38822 (assay: SPOT array). Details: median of control spots 4446.

Binder	SPOT intensity
HAPPLPPTAPPPPSL	0
MPAPPPPPPPPPGAF	0
VPKEPAPAPPPEPDM	0

The binders below were run against T11, Lsb4, P32793 (assay: SPOT array). Details: median of control spots 397.

Binder	SPOT intensity
HAPPLPPTAPPPPSL	0
MPAPPPPPPPPPGAF	0
VPKEPAPAPPPEPDM	0

These binders were tested against T12, Boi2, P39969 (assay: SPOT array). Details: median of control spots 1161.

Binder	SPOT intensity
HAPPLPPTAPPPPSL	0
MPAPPPPPPPPPGAF	0
VPKEPAPAPPPEPDM	0

The binders below were run against T13, Nbp2, Q12163 (assay: SPOT array). Details: median of control spots 357.

Binder	SPOT intensity
HAPPLPPTAPPPPSL	0
MPAPPPPPPPPPGAF	0
VPKEPAPAPPPEPDM	0

The binders below were run against T14, Sla1-3, P32790 (assay: SPOT array). Details: median of control spots 5475.

Binder	SPOT intensity
HAPPLPPTAPPPPSL	0
MPAPPPPPPPPPGAF	2
VPKEPAPAPPPEPDM	0

What follows are binders tested against T15, Sla1-2, P32790 (assay: SPOT array). Details: median of control spots 712.

Binder	SPOT intensity
HAPPLPPTAPPPPSL	0
MPAPPPPPPPPPGAF	0
VPKEPAPAPPPEPDM	0

What follows are binders tested against T16, Myo5, Q04439 (assay: SPOT array). Details: median of control spots 471.

Binder	SPOT intensity
HAPPLPPTAPPPPSL	279
MPAPPPPPPPPPGAF	49
VPKEPAPAPPPEPDM	93

What follows are binders tested against GST (assay: SPOT array). Details: median of control spots 978.

Binder	SPOT intensity
HAPPLPPTAPPPPSL	0
MPAPPPPPPPPPGAF	0
VPKEPAPAPPPEPDM	0

The binders below were run against T17, Bzz1-2, P38822 (assay: SPOT array). Details: median of control spots 4538.

Binder	SPOT intensity
HAPPLPPTAPPPPSL	0
MPAPPPPPPPPPGAF	1
VPKEPAPAPPPEPDM	0

Each binder was assayed against T18, Hse1, P38753 (assay: SPOT array). Details: median of control spots 1727.

Binder	SPOT intensity
HAPPLPPTAPPPPSL	0
MPAPPPPPPPPPGAF	0
VPKEPAPAPPPEPDM	3

What follows are binders tested against Bem1-2, P29366 (assay: SPOT array). Details: median of control spots 4347.
Chain of Bem1-2, P29366 (P29366 139-227): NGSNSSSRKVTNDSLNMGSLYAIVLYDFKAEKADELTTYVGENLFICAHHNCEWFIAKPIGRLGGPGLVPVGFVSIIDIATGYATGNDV

Binder	SPOT intensity
HAPPLPPTAPPPPSL	0
MPAPPPPPPPPPGAF	0
VPKEPAPAPPPEPDM	0

The binders below were run against T19, Lsb3, P43603 (assay: SPOT array). Details: median of control spots 406.

Binder	SPOT intensity
HAPPLPPTAPPPPSL	0
MPAPPPPPPPPPGAF	0
VPKEPAPAPPPEPDM	0

Each binder was assayed against T20, Hof1, Q05080 (assay: SPOT array). Details: median of control spots 4086.

Binder	SPOT intensity
HAPPLPPTAPPPPSL	11
MPAPPPPPPPPPGAF	0
VPKEPAPAPPPEPDM	0

The binders below were run against Myo3, P36006 (assay: SPOT array). Details: median of control spots 468.

Binder	SPOT intensity
HAPPLPPTAPPPPSL	465
MPAPPPPPPPPPGAF	163
VPKEPAPAPPPEPDM	149

Each binder was assayed against T21, Boi1, P38041 (assay: SPOT array). Details: median of control spots 1162.

Binder	SPOT intensity
HAPPLPPTAPPPPSL	0
MPAPPPPPPPPPGAF	0
VPKEPAPAPPPEPDM	0

Each binder was assayed against Sho1, P40073 (assay: SPOT array). Details: median of control spots 1148.
Chain of Sho1, P40073 (P40073 287-367): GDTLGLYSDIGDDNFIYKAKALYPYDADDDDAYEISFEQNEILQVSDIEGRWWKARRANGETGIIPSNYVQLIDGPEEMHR

Binder	SPOT intensity
HAPPLPPTAPPPPSL	0
MPAPPPPPPPPPGAF	0
VPKEPAPAPPPEPDM	0

What follows are binders tested against Rvs167, P39743 (assay: SPOT array). Details: median of control spots 2707.
Chain of Rvs167, P39743 (P39743 419-482): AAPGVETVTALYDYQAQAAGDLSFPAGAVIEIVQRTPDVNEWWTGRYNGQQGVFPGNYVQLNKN

Binder	SPOT intensity
HAPPLPPTAPPPPSL	0
MPAPPPPPPPPPGAF	0
VPKEPAPAPPPEPDM	0
